In publication PMC4021333:

Substrate: NCC(=O)N[C@@H](Cc1ccccc1)C(=O)Nc1ccc([N+](=O)[O-])cc1
Assay: purified protein
Settings: wild type; conditions of the Km measurement not told

B1: DAP BII (Pseudoxanthomonas mexicana) (protein)
chain: GEGMWVPQQLPEIAGPLKKAGLKLSPQQISDLTGDPMGAVVALGGCTASFVSPNGLVVTNHHCAYGAIQLNSTAENNLIKNGFNAPTTADEVSAGPNARVFVLDEITDVTKDAKAAIAAAGDDALARTKALEAFEKKLIADCEAEAGFRCRLYSFSGGNTYRLFKNLEIKDVRLAYAPPGSVGKFGGDIDNWMWPRHTGDFAFYRAYVGKDGKPAAFSKDNVPYQPKHWLKFADQPLGAGDFVMVAGYPGSTNRYALAAEFDNTAQWTYPTIARHYKNQIAMVEAAGKQNADIQVKYAATMAGWNNTSKNYDGQLEGFKRIDAAGQKLREEAAVLGWLKGQGAKGQPALDAHAKLLDLLEQSKATRDRDLTLALFNNTAMLGSATQLYRLSIEREKPNAERESGYQERDLPAIEGGLKQLERRYVAAMDRQLQEYWLNEYIKLPADQRVAAVDAWLGGNDAAAVKRALDRLAGTKLGSTEERLKWFAADRKAFEASNDPAIQYAVAVMPTLLKLEQERKTRAGENLAARPVYLQALADYKKSQGEFVYPDANLSLRITFGNVMGYAPKDGMEYTPFTTLEGVVAKETGQDPFDSPKALLDAVAAKRYGGLEDKRIGSVPVNYLSDLDITGGNSGSPVLDAHGKLVGLAFDGNWESVSSNWVFDPKMTRMIAVDGRYLRWIMQEVYPAPQLLKEMNVGK
  Km: 1.4 mM
